Legend:
[1] = biological target: T1, MICA on human tumor cells (A-375, A549, HCT-15, MDA-MB-231) (human, UniProt Q29983 24-383); test: flow cytometry competition on HCT-15 cells; competitor: Biotin-h5A1002, detected with Alexa-647 streptavidin; % binding ratio of Biotin-h5A1002
T1 construct: whole, on cells
T1 sequence (looked up): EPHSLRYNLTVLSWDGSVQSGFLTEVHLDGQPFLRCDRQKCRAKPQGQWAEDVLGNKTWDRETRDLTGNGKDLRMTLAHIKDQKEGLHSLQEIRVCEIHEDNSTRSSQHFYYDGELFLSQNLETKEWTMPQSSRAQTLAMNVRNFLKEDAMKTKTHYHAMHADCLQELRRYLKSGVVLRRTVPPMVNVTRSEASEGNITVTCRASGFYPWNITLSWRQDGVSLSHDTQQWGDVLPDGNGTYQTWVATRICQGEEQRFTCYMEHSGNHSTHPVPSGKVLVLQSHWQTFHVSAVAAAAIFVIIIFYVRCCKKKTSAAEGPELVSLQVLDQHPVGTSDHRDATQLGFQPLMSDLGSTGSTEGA
Description: HCT-15 cells were diluted to a density of 2×10⁶/mL with PBS and added into a 1.5 ml EP tube in a volume of 100 l/tube. 10 l/tube of goat serum was added into the EP tube, and blocking was conducted at 4° C. for 30 min. […] The tube was incubated at 4° C. for 30 min. A biotin-labeled affinity maturation antibody Biotin-h5A1002 (having a heavy chain sequence as set forth in SEQ ID NO: 13 and a light chain sequence as set forth in SEQ ID NO: 14) was added. The tube was incubated at 4° C. for 30 min. 1 mL of PBS was added into the EP tube, and centrifugation was conducted 4° C. at a rate of 3,500 rpm for 5 min. The supernatant was removed. The EP tube was washed once with the PBS, and the supernatant was removed after centrifugation. The cells were resuspended with PBS in a volume of 100 l/tube. An Alexa-647 labeled Streptavidin secondary antibody (purchased from Biolegend) was added into the tube in a volume of 1 l/tube, and the tube was incubated in the dark at 4° C. for 30 min. The tube was washed twice with PBS, and the supernatant was removed after centrifugation. The cells were resuspended with the PBS in a volume of 200 μl/tube, and detection was conducted by a flow cytometer.

[2] = biological target: T1, MICA on human tumor cells (A-375, A549, …); test: flow cytometry on MDA-MB-231 cells, Alexa-647 goat anti-human secondary, % binding ratio
Description: (§1) (2) Tumor cells were diluted to a density of 2×10⁶/mL with PBS and added into a 1.5 ml EP tube in a volume of 100 l/tube. 10 l/tube of goat serum was added into the EP tube; and blocking was conducted at 4° C. for 30 min. […] The tube was incubated at 4° C. for 30 min. 1 mL of PBS was added into the EP tube, and centrifugation was conducted 4° C. at a rate of 3,500 rpm for 5 min. The supernatant was removed. Then, the EP tube was washed once with the PBS, and the supernatant was removed after centrifugation. The cells were resuspended with PBS in a volume of 100 l/tube. An Alexa-647 labeled goat anti-human secondary antibody (purchased from Jackson lab) was added into the tube in a volume of 1 l/tube, and the tube was incubated in the dark at 4° C. for 30 min. The tube was washed twice with PBS, and the supernatant was removed after centrifugation. The cells were resuspended with the PBS in a volume of 200 l/tube, and detection was conducted by a flow cytometer. The results are as shown in FIG. 17A and FIG. 17B, FIG. 18A and FIG. 18B, FIG. 19A and FIG. 19B, and FIG. 20A and FIG. 20B.

MICA008α3-Fc = biological target: T2, MICA008α3-Fc (human); test: ELISA on coated MICA*008 α3-Fc (1 µg/ml), HRP anti-human Fab secondary, OD450
T2 construct: also called MICA*008-Fc; domain α3 of MICA-008 Fc fusion protein
T2 sequence (chain, as listed by the source limits assumed): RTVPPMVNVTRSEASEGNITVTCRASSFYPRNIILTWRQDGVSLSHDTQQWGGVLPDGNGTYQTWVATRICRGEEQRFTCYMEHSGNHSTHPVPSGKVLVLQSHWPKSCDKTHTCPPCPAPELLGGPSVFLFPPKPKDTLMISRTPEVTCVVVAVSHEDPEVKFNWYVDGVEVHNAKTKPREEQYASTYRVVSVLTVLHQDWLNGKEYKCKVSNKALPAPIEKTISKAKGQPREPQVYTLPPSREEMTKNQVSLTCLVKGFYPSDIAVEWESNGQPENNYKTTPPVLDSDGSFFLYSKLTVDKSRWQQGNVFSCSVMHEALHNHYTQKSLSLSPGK

[3] = biological target: T3, MICA protein (SPR analyte) (human, UniProt Q29983 24-308, limits assumed); test: SPR, Biacore 8K, antibody captured on protein A chip, MICA as analyte
T3 construct: also called major histocompatibility complex class I chain related polypeptide A
T3 sequence: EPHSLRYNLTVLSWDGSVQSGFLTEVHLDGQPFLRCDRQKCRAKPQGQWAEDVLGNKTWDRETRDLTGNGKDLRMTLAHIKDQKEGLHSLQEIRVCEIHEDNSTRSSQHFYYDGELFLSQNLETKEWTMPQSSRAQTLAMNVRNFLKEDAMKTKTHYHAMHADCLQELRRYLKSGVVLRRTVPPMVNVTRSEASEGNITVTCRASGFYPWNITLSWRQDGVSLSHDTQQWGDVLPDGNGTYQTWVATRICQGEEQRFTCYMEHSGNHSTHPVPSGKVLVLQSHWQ
Description: In a Biacore 8K (Cytiva) system, the antibody was diluted to a concentration of 10 µg/mL with running buffer (HBS-EP), and the antibody was conjugated onto a protein A (Cytiva, 29127556) chip at a flow rate of […].
Kinetic and affinity data of binding of the maternal antibody h5A1 and the affinity maturation antibody h5A1002 and MICA were detected.

MICA005α3-Fc = biological target: T4, MICA005α3-Fc (human); test: ELISA on coated MICA*005 α3-Fc (1 µg/ml), HRP anti-human Fab secondary, OD450
T4 construct: also called MICA*005-Fc; domain α3 of MICA-005 Fc fusion protein
T4 sequence (chain, as listed by the source limits assumed): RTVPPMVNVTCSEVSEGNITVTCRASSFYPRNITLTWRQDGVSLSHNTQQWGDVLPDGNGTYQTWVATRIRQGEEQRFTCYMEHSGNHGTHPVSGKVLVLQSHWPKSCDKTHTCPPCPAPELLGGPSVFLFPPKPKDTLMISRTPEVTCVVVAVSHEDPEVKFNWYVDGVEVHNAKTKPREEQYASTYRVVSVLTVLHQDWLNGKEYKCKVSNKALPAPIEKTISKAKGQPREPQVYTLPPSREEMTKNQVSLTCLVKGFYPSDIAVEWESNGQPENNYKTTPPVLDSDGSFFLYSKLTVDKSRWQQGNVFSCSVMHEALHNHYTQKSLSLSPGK

[4] = biological target: T1, MICA on human tumor cells (A-375, A549, …); test: flow cytometry on A-549 cells, Alexa-647 goat anti-human secondary, % binding ratio
Description: as §1

IC50 (read off the curve) [1]: ~1 µg/mL
EC50 (read off the curve) [2]: ~0.3 µg/mL
EC50 (read off the curve) (MICA008α3-Fc): ~0.06 µg/mL
Kd [3]: 5.4 nM
koff [3]: 0.000129 s⁻¹
kon [3]: 23800 M⁻¹ s⁻¹
EC50 (read off the curve) (MICA005α3-Fc): ~0.04 µg/mL
EC50 (read off the curve) [4]: ~0.4 µg/mL
B1: affinity maturation antibody h5A1002 (antibody, V domains shown)
VH: QVQLQESGPGLVKPSETLSLTCTVSGFSLTTYGGHWIRQPPGKGLEWIGMIWTDGWTDYNAAFISRVTISVDTSKNQFSLKLSSVTAADTAVYYCARKGHGYYYAMDYWGQGTLVTVSS
VL: EIVLTQSPGTLSLSPGERATLSCTASSSVSSSYLHWYQQKPGQAPRLLIYSTSNLISGIPDRFSGSGSGTDFTLTISRLEPEDFAVYYCHQYHRSPFTFGQGTKLEIKR
notes: Human IgG1, kappa; also called h5A1002-hIgG1

Source: patent US20240368285A1 (HEFEI TG IMMUNOPHARMA, published 2024)
